Like-named read-outs stand apart in the source and are kept apart here. Blank lines part the entries; values can stand above or below the binder they belong to.
How the values were obtained:
[1] = biological target: T1, human DR3 (full length, on cells) (human, UniProt Q93038 25-417); assay: cell-based or functional assay
T1 sequence: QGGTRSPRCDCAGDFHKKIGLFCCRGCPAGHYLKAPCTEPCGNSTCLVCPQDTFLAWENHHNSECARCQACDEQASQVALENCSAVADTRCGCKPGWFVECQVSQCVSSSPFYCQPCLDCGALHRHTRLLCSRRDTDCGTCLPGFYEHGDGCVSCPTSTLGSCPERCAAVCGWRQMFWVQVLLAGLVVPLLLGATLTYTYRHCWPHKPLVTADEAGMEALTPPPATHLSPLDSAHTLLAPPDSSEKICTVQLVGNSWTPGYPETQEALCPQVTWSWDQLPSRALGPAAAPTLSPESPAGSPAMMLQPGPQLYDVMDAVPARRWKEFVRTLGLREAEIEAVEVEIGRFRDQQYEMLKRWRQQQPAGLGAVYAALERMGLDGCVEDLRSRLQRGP

DR3 (CRD1)-Fc [2] = biological target: T2, DR3 (CRD1)-Fc (human); assay: SPR
T2 construct: Amino acids 25-71 of DR3 fused to the Fc domain of human IgG4; purified to exclude oligomers (mainly dimeric)
Text: (§1) The extracellular moiety of DR3 is located at the aminoterminal portion of DR3 and is comprised of four TNF receptor cysteine-rich domains. Several fusion proteins were expressed and purified which contained parts of the extracellular domain of DR3 of increasing length fused to the Fc domain of a human IgG4. The DR3 proteins used for SPR analysis had been purified to exclude oligomerized material. These proteins were immobilized to a CM5 sensor chip using amine coupling chemistry. Binding of anti-DR3 antibodies termed 0070, 0072, 0073 and 0076, to the different DR3-Fc fusion proteins was tested by means of plasmon surface binding measurements on a Biacore T100 instrument (GE Healthcare). All of these antibodies inhibit binding of TL1A to DR3 in a FACS assay. These 4 antibodies bound to recombinant DR3 (CRD1)-Fc protein that contained only the aminoterminal CRD (SEQ ID NO:2) comprised of amino acids 25-71 of DR3.
The same analysis was also performed for some of the Fab fragments.

[3] = biological target: T1, human DR3 (full length, on cells); assay: cell-based or functional assay; remark: listed apart in the source
[4] = biological target: T3, human DR3 with the death domain deleted (ΔM339-P417 of SEQ ID NO:1), expressed on CHOK1SV cells (human, UniProt Q93038 25-338); assay: flow cytometry competition: Fab vs TL1A on hDR3-expressing CHO cells
T3 construct: also called truncated DR3; hDR3 expressing CHO cells
T3 sequence: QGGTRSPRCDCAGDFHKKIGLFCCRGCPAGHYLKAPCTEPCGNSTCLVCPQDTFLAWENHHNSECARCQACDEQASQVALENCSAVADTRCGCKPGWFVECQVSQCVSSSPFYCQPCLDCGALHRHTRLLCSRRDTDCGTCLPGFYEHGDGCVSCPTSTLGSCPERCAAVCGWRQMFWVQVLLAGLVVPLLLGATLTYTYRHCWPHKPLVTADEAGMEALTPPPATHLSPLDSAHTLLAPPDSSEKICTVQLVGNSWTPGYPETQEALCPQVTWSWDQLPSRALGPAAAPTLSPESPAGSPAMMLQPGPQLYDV

DR3 (CRD1)-Fc [5] = biological target: T2, DR3 (CRD1)-Fc; assay: SPR, Biacore T100, DR3-Fc fusion immobilised
Text: as §1

[6] = biological target: T1, human DR3 (full length, on cells); assay: flow cytometry on CD3/CD28-stimulated human CD4+ T cells
Procedure: Human CD4-positive T cells were purified from Buffy coats using CD4 Rosettesep (Stem cell technologies) and Histopaque (Sigma). T cells were stimulated with CD3/CD28 Dynabeads (Invitrogen) at a 1:1 ratio for 4 days in T75 flask at 2 mio CD4 T cells/ml in RPMI supplemented with 10% fcs. Beads were removed using a magnet, and cells were washed twice before titrating in antibodies on 500.000 cells/staining. Binding saturation was measured after incubation with goat-anti-mouse phycoerythrin (Jackson ImmunoResearch) and cells were subsequently analysed by flow cytometry on a BD LSRII. All antibodies reached saturation at 3 μg/ml.

[7] = biological target: T1, human DR3 (full length, on cells); assay: flow cytometry on IL-12/IL-18/TL1A activated CD4+ T cells, 1 µg/ml
Procedure: (§2) Buffy Coats were obtained from normal healthy volunteers from Copenhagen University Hospital. CD4+ T cells were isolated through magnetic bead separation. Cells were activated with 2 ng/ml IL-12, 50 ng/ml IL-18 and 100 ng/ml TL1A (Flag-HIS-TEV-TL1A-produced at Novo Nordisk A/S) and cultured for 5 days. On day 5 cells were stained with 10, 5, 1, 0.5, 0.1 or 0.0001 μg/ml of the anti-DR3 mAb clones 0072, 0073, or 0077, or with Fab fragment clones 0087, 0088 and 0091. A secondary PE conjugated goat-anti-mouse (H+L) was used for detection.
as §2, with “Material and Methods: Buffy” for “Buffy”, “Copenhagen” for “Copenhagen University”, “0088 or” for “0088 and”, “detection. Samples were in duplicate. Staining intensity was evaluated by FACS.” for “detection.”

[8] = biological target: T1, human DR3 (full length, on cells); assay: as above; remark: listed apart in the source
Procedure: as §2
The greater observed MFI values of IgG treated compared with Fab treated cells was expected since the secondary (detecting) antibody (anti-IgG heavy and light chain) bound to both Fab and Fc parts of the full-length IgG antibody clones, but only to Fab parts of Fab clones (Table 9).

[9] = biological target: T1, human DR3 (full length, on cells); assay: cell-based or functional assay; remark: listed apart in the source
[10] = biological target: T1, human DR3 (full length, on cells); assay: cell-based or functional assay; remark: listed apart in the source

- IC50, TNFalpha inhibition, TL1A-activated CD4+ T cells, donor 1 [1]: 0.183 nM
- IC50, TNFalpha inhibition, average (n 1) [1]: 0.183 nM
- max % inhibition of TNFalpha, donor 1 [1]: 73.5%
- binding result (DR3 (CRD1)-Fc [2]): binds
- IC50 at 40 ng/ml TL1A, I5 reporter cells [3]: 2.1 nM
B1: 0152 (chimeric Fab of 50F191, human IgG4 constant domain, hinge Cys->Ser) (Fab, V domains shown)
VH: EVQLVESGGGLVEPGGSLKLSCAASGFTFSTYAMSWVRQSPEKRLEWVAEISSGDSYTYYPDIVTGRFTISRDDAKNTLFLEMSSLRSEDTAIYYCVRDQDYRYDGYYAMDHWGQGTSVTVSS
VL: DIVLTQSPASLAVSLGQRATISCRASESVEHYGTSLMQWYQQKPGQPPKLLIYAASNVESGVPARFSGRGSGPDFSLNIHPVEEDDIAMYFCQQSRRIPWTFGGGTKLEIKR
notes: IgG4-Ser, chimeric
- IC50 [4]: 0.512 nM
- max percentage inhibition [4]: 53%

- binding result (DR3 (CRD1)-Fc [5]): binds
- Median Fluorescent Intensity [6]: 2650
- Staining index (MFI Ab/MFI Isotype) [6]: 11.9
- saturation concentration [6]: 3 µg/mL
- MFI [7]: 1300 MFI
- MFI [8]: 1300 MFI
- fold response, DR3 reporter, 40 ng/ml TL1A + 0.000256 microg/ml [9]: 33.8 fold
- fold response, DR3 reporter, 40 ng/ml TL1A + 0.00128 microg/ml [9]: 37.2 fold
- fold response, DR3 reporter, 40 ng/ml TL1A + 0.0064 microg/ml [9]: 40.3 fold
- fold response, DR3 reporter, 40 ng/ml TL1A + 0.032 microg/ml [9]: 41 fold
- fold response, DR3 reporter, 40 ng/ml TL1A + 0.08 microg/ml [9]: 38.4 fold
- fold response, DR3 reporter, 40 ng/ml TL1A + 4 microg/ml [9]: 34 fold
- fold response, DR3 reporter, 40 ng/ml TL1A + 20 microg/ml [9]: 27.8 fold
- fold response, DR3 reporter, 40 ng/ml TL1A + 100 microg/ml [9]: 18.4 fold
- fold response, DR3 reporter, no TL1A, 0.000256 microg/ml [9]: 1.1 fold
- fold response, DR3 reporter, no TL1A, 0.00128 microg/ml [9]: 2.2 fold
- fold response, DR3 reporter, no TL1A, 0.0064 microg/ml [9]: 9.3 fold
- fold response, DR3 reporter, no TL1A, 0.032 microg/ml [9]: 18.6 fold
- fold response, DR3 reporter, no TL1A, 0.08 microg/ml [9]: 25.1 fold
- fold response, DR3 reporter, no TL1A, 4 microg/ml [9]: 21.1 fold
- fold response, DR3 reporter, no TL1A, 20 microg/ml [9]: 16.3 fold
- fold response, DR3 reporter, no TL1A, 100 microg/ml [9]: 9.2 fold
- fold response, DR3 reporter, 40 ng/ml TL1A + 0.1 microg/ml [10]: 29.6 fold
- fold response, DR3 reporter, 40 ng/ml TL1A + 1 microg/ml [10]: 24.8 fold
- fold response, DR3 reporter, 40 ng/ml TL1A + 10 microg/ml [10]: 23.3 fold
- fold response, DR3 reporter, 40 ng/ml TL1A + 100 microg/ml [10]: 13.6 fold
- fold response, DR3 reporter, no TL1A, 0.1 microg/ml [10]: 20.6 fold
- fold response, DR3 reporter, no TL1A, 1 microg/ml [10]: 19.8 fold
- fold response, DR3 reporter, no TL1A, 10 microg/ml [10]: 17.3 fold
- fold response, DR3 reporter, no TL1A, 100 microg/ml [10]: 8.5 fold
B2: 0072 (murine mAb purified from hybridoma 27F44A2) (antibody, mouse IgG1, V domains shown)
VH: EVKLVESGGGLVKPGGSLKLSCSASGFAFSNYDMSWVRQTPEKRLEWVAAFSSDGYTFYPDSLKGRFTISRDNARNTLYLQMSSLGSEDTALYCCARHADYANYPVMDYWGQGTSVTVSS
VL: DIVLAQSPASLLVSLGQRATISCRASKSVSTSGYSYMHWYQQKPGQPPKLLIYLASNLESGVPARFSGSGSGTDFTLNIHPVEEEDAATYYCQHSRELPLTFGAGTMLELKR
notes: murine IgG1, kappa; also called 0084

- binding result (DR3 (CRD1)-Fc [5]): binds
- Median Fluorescent Intensity [6]: 2330
- Staining index (MFI Ab/MFI Isotype) [6]: 10.5
- saturation concentration [6]: 3 µg/mL
B3: 0070 (murine mAb purified from hybridoma 27F16A1) (antibody, V domains shown)
VH: EVQLVESGGDFVKPGGSLKLSCAASGFTFNNYGMSWVRQTPDKRLEWVAAISSGVTYTYYPDTVKGRFTISRDNAKNTLYLHMSSLKSEDTAMYYCGRHDDYGNHFDYWGQGTTLTVSS
VL: DIVMTQSPSSLAMSLGQRVTMNCKSSQSLLNSHNQKNYLAWYQQKPGQSPKLLVYFASSRESGVPDRFIGSGSGTDFTLTISSVQAEDLADYFCQQHYSTPFTFGSGTKLEIKR
notes: murine IgG1, kappa; also called 0083

— patent US20170305994A1 (Novo Nordisk, published 2017)
